For experiment [1], the target named is Aβ1-42 protofibril (UniProt P05067). In words: direct ELISA, coated Aβ1-42 protofibril, 50 pmol per well. (In general: An ELISA detects its analyte on a solid surface through an enzyme-linked reagent.)
The target in experiment [2] is Aβ1-40 monomer (rPeptide, A-1157-2) (UniProt P05067). In words: direct ELISA, coated Aβ1-40 monomer, 50 pmol per well.
The target in experiment [3] is Aβ1-42 fibril (rPeptide, AF-1002) (UniProt P05067). Description: direct ELISA, coated Aβ1-42 fibril, 50 pmol per well.
Experiment [4] deals with biotin-labelled Aβ1-40 monomer (AnaSpec, AS-61483-01) (UniProt P05067). Description: capture ELISA, antibody coated at 100 ng per well, biotin-Aβ40 monomer.

This note sets out measurements from patent US20240301046A1.

Usually EC50 stands for the concentration that produces a half-maximal response. Low readings indicate higher potency in that assay, high ones lower potency in that assay.

As for “non-conformation selective anti-Aβ antibody 6E10 (BioLegend, 803001)”, the EC50 in experiment [1] turned out to be 0.05 nM; in experiment [2] it was 50000 nM; in experiment [3] it was 0.08 nM; in experiment [4] it was 0.067 nM.
